Laboratory results as given in the supplement of paper PMC5998384.

Columns and labels:
HeLa Kyoto [1] = experiment: solubility change mitosis vs G1/S (difference of NP-40 vs SDS log2 ratios) (log2 ratio difference); higher = more soluble in mitosis
HeLa Kyoto [2] = experiment: solubility in G1/S (NP-40 vs SDS abundance) (log2 ratio); higher = more soluble; details: cell cycle stage: G1/S
HeLa Kyoto [3] = experiment: melting temperature (median over replicates), in situ; higher = more thermally stable
HeLa Kyoto [4] = experiment: thermal stability score vs G1/S (z-score of summed log2 fold changes over temperatures); higher = more thermally stable than in G1/S
[5] = cell cycle stage: early G1 (4.5 h after nocodazole release)
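Wherever melting temperature (median over replicates), in situ is given: HeLa Kyoto cells synchronized by double thymidine or nocodazole block, proteins quantified by TMT10plex mass spectrometry, three independent biological replicates.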
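Wherever solubility change mitosis vs G1/S (difference of NP-40 vs SDS log2 ratios) is given: synchronized HeLa Kyoto cells (double thymidine block for G1/S, nocodazole release for mitosis), protein amounts in NP-40 versus SDS lysates quantified by mass spectrometry, three biological replicates.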
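Wherever solubility in G1/S (NP-40 vs SDS abundance) is given: HeLa Kyoto cells arrested at G1/S by double thymidine block, proteins quantified by TMT10plex mass spectrometry in mild NP-40 versus SDS extracts, three biological replicates.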
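Wherever thermal stability score vs G1/S (z-score of summed log2 fold changes over temperatures) is given: synchronized HeLa Kyoto cells, proteins quantified by TMT10plex mass spectrometry, three biological replicates, mitosis taken 0.5 h after nocodazole release, G1/S directly after double thymidine block.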

Chain of VPRBP (chain, as listed by the source): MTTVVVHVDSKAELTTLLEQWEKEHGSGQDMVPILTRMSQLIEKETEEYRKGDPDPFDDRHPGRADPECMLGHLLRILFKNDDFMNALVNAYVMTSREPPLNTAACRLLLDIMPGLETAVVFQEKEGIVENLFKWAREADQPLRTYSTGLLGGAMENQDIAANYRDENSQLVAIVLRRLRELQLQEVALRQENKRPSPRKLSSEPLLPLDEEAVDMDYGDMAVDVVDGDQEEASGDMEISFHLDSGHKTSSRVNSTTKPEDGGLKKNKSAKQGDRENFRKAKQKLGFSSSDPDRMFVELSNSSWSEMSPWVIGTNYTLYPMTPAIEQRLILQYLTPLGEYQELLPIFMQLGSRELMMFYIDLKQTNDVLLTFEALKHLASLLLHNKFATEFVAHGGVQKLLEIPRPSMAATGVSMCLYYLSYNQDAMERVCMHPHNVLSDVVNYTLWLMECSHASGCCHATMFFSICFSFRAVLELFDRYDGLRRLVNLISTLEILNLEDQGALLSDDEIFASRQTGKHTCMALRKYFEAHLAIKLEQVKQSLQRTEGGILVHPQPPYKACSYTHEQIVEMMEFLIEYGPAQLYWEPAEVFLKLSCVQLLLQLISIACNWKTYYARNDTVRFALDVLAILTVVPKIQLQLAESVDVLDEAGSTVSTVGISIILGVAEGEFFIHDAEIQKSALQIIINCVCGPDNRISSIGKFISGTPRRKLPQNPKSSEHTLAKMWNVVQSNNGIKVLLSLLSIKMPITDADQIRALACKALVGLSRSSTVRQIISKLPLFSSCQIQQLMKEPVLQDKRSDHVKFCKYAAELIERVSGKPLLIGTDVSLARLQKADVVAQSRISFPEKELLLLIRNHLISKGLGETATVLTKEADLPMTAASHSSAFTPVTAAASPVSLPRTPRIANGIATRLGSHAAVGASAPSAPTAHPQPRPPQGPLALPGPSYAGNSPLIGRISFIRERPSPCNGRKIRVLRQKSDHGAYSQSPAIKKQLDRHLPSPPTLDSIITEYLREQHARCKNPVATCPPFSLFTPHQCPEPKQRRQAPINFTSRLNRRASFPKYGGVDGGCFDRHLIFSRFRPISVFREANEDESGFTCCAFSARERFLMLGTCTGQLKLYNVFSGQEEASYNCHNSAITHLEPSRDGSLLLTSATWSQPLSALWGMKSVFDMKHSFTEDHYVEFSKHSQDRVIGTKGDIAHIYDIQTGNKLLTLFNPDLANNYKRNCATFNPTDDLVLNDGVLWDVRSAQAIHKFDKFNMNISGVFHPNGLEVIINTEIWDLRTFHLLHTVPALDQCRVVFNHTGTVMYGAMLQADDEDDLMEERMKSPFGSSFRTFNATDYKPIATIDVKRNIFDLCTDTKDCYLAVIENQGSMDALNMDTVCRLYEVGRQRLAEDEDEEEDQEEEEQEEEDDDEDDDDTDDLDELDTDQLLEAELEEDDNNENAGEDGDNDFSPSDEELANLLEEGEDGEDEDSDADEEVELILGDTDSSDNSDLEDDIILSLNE
Chain of REEP5 (chain, as listed by the source): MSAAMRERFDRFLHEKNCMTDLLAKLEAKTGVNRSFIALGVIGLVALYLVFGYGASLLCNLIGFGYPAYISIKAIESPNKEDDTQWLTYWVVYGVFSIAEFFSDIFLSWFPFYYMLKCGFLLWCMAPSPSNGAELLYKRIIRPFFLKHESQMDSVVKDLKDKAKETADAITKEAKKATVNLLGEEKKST

| Substance | solubility change mitosis (log2) (HeLa Kyoto [1]) | solubility in G1/S (log2) (HeLa Kyoto [2]) | melting temperature (HeLa Kyoto [3]; cell cycle stage: G1/S) | melting temperature (HeLa Kyoto [3]; cell cycle stage: mitosis) | thermal stability score (HeLa Kyoto [4]; [5]) | thermal stability score (HeLa Kyoto [4]; cell cycle stage: mitosis) |
| --- | --- | --- | --- | --- | --- | --- |
| MESPGESGAGSPGAPSPSSFTTGHLAREKPAQDPLYDVPNASGGQAGGPQRPGRVVSLRERLLLTRPVWLQLQANAAAALHMLRTEPPGTFLVRKSNTRQCQALCMRLPEASGPSFVSSHYILESPGGVSLEGSELMFPDLVQLICAYCHTRDILLLPLQLPRAIHHAATHKELEAISHLGIEFWSSSLNIKAQRGPAGGPVLPQLKARSPQELDQGTGAALCFFNPLFPGDLGPTKREKFKRSFKVRVSTETSSPLSPPAVPPPPVPVLPGAVPSQTERLPPCQLLRRESSVGYRVPAGSGPSLPPMPSLQEVDCGSPSSSEEEGVPGSRGSPATSPHLGRRRPLLRSMSAAFCSLLAPERQVGRAAAALMQDRHTAAGQLVQDLLTQVRAGPEPQELQGIRQALSRARAMLSAELGPEKLLSPKRLEHVLEKSLHCSVLKPLRPILAARLRRRLAADGSLGRLAEGLRLARAQGPGAFGSHLSLPSPVELEQVRQKLLQLLRTYSPSAQVKRLLQACKLLYMALRTQEGEGAGADEFLPLLSLVLAHCDLPELLLEAEYMSELLEPSLLTGEGGYYLTSLSASLALLSGLGQAHTLPLSPVQELRRSLSLWEQRRLPATHCFQHLLRVAYQDPSSGCTSKTLAVPPEASIATLNQLCATKFRVTQPNTFGLFLYKEQGYHRLPPGALAHRLPTTGYLVYRRAEWPETQGAVTEEEGSGQSEARSRGEEQGCQGDGDAGVKASPRDIREQSETTAEGGQGQAQEGPAQPGEPEAEGSRAAEE [RIN1] | -0.062 | 0.282 | 48.9 °C | 48.6 °C | 0.0327 | 1.21 |
| VPRBP | -0.0867 | -0.225 | 50.8 °C | 50.6 °C | -0.576 | -0.973 |
| MAAAPLKVCIVGSGNWGSAVAKIIGNNVKKLQKFASTVKMWVFEETVNGRKLTDIINNDHENVKYLPGHKLPENVVAMSNLSEAVQDADLLVFVIPHQFIHRICDEITGRVPKKALGITLIKGIDEGPEGLKLISDIIREKMGIDISVLMGANIANEVAAEKFCETTIGSKVMENGLLFKELLQTPNFRITVVDDADTVELCGALKNIVAVGAGFCDGLRCGDNTKAAVIRLGLMEMIAFARIFCKGQVSTATFLESCGVADLITTCYGGRNRRVAEAFARTGKTIEELEKEMLNGQKLQGPQTSAEVYRILKQKGLLDKFPLFTAVYQICYESRPVQEMLSCLQSHPEHT [GPD1L] | -0.126 | 0.144 | 53.2 °C | 53 °C | 0.464 | -0.000421 |
| REEP5 | -0.114 | -0.148 | 55.4 °C | 57.6 °C | -0.45 | -0.719 |
| MNIMDFNVKKLAADAGTFLSRAVQFTEEKLGQAEKTELDAHLENLLSKAECTKIWTEKIMKQTEVLLQPNPNARIEEFVYEKLDRKAPSRINNPELLGQYMIDAGTEFGPGTAYGNALIKCGETQKRIGTADRELIQTSALNFLTPLRNFIEGDYKTIAKERKLLQNKRLDLDAAKTRLKKAKAAETRNSSEQELRITQSEFDRQAEITRLLLEGISSTHAHHLRCLNDFVEAQMTYYAQCYQYMLDLQKQLGSFPSNYLSNNNQTSVTPVPSVLPNAIGSSAMASTSGLVITSPSNLSDLKECSGSRKARVLYDYDAANSTELSLLADEVITVFSVVGMDSDWLMGERGNQKGKVPITYLELLN [SH3GLB1] | 0.00172 | 0.531 | 48.1 °C | 48.7 °C | 1.13 | 2.44 |
| MSRGGSYPHLLWDVRKRSLGLEDPSRLRSRYLGRREFIQRLKLEATLNVHDGCVNTICWNDTGEYILSGSDDTKLVISNPYSRKVLTTIRSGHRANIFSAKFLPCTNDKQIVSCSGDGVIFYTNVEQDAETNRQCQFTCHYGTTYEIMTVPNDPYTFLSCGEDGTVRWFDTRIKTSCTKEDCKDDILINCRRAATSVAICPPIPYYLAVGCSDSSVRIYDRRMLGTRATGNYAGRGTTGMVARFIPSHLNNKSCRVTSLCYSEDGQEILVSYSSDYIYLFDPKDDTARELKTPSAEERREELRQPPVKRLRLRGDWSDTGPRARPESERERDGEQSPNVSLMQRMSDMLSRWFEEASEVAQSNRGRGRSRPRGGTSQSDISTLPTVPSSPDLEVSETAMEVDTPAEQFLQPSTSSTMSAQAHSTSSPTESPHSTPLLSSPDSEQRQSVEASGHHTHHQSDNNNEKLSPKPGTGEPVLSLHYSTEGTTTSTIKLNFTDEWSSIASSSRGIGSHCKSEGQEESFVPQSSVQPPEGDSETKAPEESSEDVTKYQEGVSAENPVENHINITQSDKFTAKPLDSNSGERNDLNLDRSCGVPEESASSEKAKEPETSDQTSTESATNENNTNPEPQFQTEATGPSAHEETSTRDSALQDTDDSDDDPVLIPGARYRAGPGDRRSAVARIQEFFRRRKERKEMEELDTLNIRRPLVKMVYKGHRNSRTMIKEANFWGANFVMSGSDCGHIFIWDRHTAEHLMLLEADNHVVNCLQPHPFDPILASSGIDYDIKIWSPLEESRIFNRKLADEVITRNELMLEETRNTITVPASFMLRMLASLNHIRADRLEGDRSEGSGQENENEDEE [DCAF6] | 0.0043 | -0.176 | 54.7 °C | 54.9 °C | -1.47 | -2.02 |
| MCSLGLFPPPPPRGQVTLYEHNNELVTGSSYESPPPDFRGQWINLPVLQLTKDPLKTPGRLDHGTRTAFIHHREQVWKRCINIWRDVGLFGVLNEIANSEEEVFEWVKTASGWALALCRWASSLHGSLFPHLSLRSEDLIAEFAQVTNWSSCCLRVFAWHPHTNKFAVALLDDSVRVYNASSTIVPSLKHRLQRNVASLAWKPLSASVLAVACQSCILIWTLDPTSLSTRPSSGCAQVLSHPGHTPVTSLAWAPSGGRLLSASPVDAAIRVWDVSTETCVPLPWFRGGGVTNLLWSPDGSKILATTPSAVFRVWEAQMWTCERWPTLSGRCQTGCWSPDGSRLLFTVLGEPLIYSLSFPERCGEGKGCVGGAKSATIVADLSETTIQTPDGEERLGGEAHSMVWDPSGERLAVLMKGKPRVQDGKPVILLFRTRNSPVFELLPCGIIQGEPGAQPQLITFHPSFNKGALLSVGWSTGRIAHIPLYFVNAQFPRFSPVLGRAQEPPAGGGGSIHDLPLFTETSPTSAPWDPLPGPPPVLPHSPHSHL [AAAS] | 0.0315 | -0.296 | 53.6 °C | 51 °C | -4.87 | -7.02 |
| MAVVIRLQGLPIVAGTMDIRHFFSGLTIPDGGVHIVGGELGEAFIVFATDEDARLGMMRTGGTIKGSKVTLLLSSKTEMQNMIELSRRRFETANLDIPPANASRSGPPPSSGMSSRVNLPTTVSNFNNPSPSVVTATTSVHESNKNIQTFSTASVGTAPPNMGASFGSPTFSSTVPSTASPMNTVPPPPIPPIPAMPSLPPMPSIPPIPVPPPVPTLPPVPPVPPIPPVPSVPPMTPLPPMSGMPPLNPPPVAPLPAGMNGSGAPMNLNNNLNPMFLGPLNPVNPIQMNSQSSVKPLPINPDDLYVSVHGMPFSAMENDVRDFFHGLRVDAVHLLKDHVGRNNGNGLVKFLSPQDTFEALKRNRMLMIQRYVEVSPATERQWVAAGGHITFKQNMGPSGQTHPPPQTLPRSKSPSGQKRSRSRSPHEAGFCVYLKGLPFEAENKHVIDFFKKLDIVEDSIYIAYGPNGKATGEGFVEFRNEADYKAALCRHKQYMGNRFIQVHPITKKGMLEKIDMIRKRLQNFSYDQREMILNPEGDVNSAKVCAHITNIPFSITKMDVLQFLEGIPVDENAVHVLVDNNGQGLGQALVQFKNEDDARKSERLHRKKLNGREAFVHVVTLEDMREIEKNPPAQGKKGLKMPVPGNPAVPGMPNAGLPGVGLPSAGLPGAGLPSTGLPGSAITSAGLPGAGMPSAGIPSAGGEEHAFLTVGSKEANNGPPFNFPGNFGGSNAFGPPIPPPGLGGGAFGDARPGMPSVGNSGLPGLGLDVPGFGGGPNNLSGPSGFGGGPQNFGNGPGSLGGPPGFGSGPPGLGSAPGHLGGPPAFGPGPGPGPGPGPIHIGGPPGFASSSGKPGPTVIKVQNMPFTVSIDEILDFFYGYQVIPGSVCLKYNEKGMPTGEAMVAFESRDEATAAVIDLNDRPIGSRKVKLVLG [RBM12] | -0.147 | 0.344 | 48.7 °C | 49.2 °C | 1.03 | 4.25 |
| FLNB | -0.0508 | -0.0724 | 51.8 °C | 51.3 °C | -0.118 | 0.998 |
| MAGRLLGKALAAVSLSLALASVTIRSSRCRGIQAFRNSFSSSWFHLNTNVMSGSNGSKENSHNKARTSPYPGSKVERSQVPNEKVGWLVEWQDYKPVEYTAVSVLAGPRWADPQISESNFSPKFNEKDGHVERKSKNGLYEIENGRPRNPAGRTGLVGRGLLGRWGPNHAADPIITRWKRDSSGNKIMHPVSGKHILQFVAIKRKDCGEWAIPGGMVDPGEKISATLKREFGEEALNSLQKTSAEKREIEEKLHKLFSQDHLVIYKGYVDDPRNTDNAWMETEAVNYHDETGEIMDNLMLEAGDDAGKVKWVDINDKLKLYASHSQFIKLVAEKRDAHWSEDSEADCHAL [NUDT9] | 0.00145 | 0.41 | 50.3 °C | 50.5 °C | -0.398 | -0.161 |
